Consider 41 sequences from the nanobody polyreactivity screen of Harvey et al. (2022).

This series is described as follows: yeast display, Sf9 membrane polyspecificity reagent, FACS + sequencing; frameworks hold sequencing errors. The procedure, abridged:
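Nanobodies from a synthetic yeast display library (Saccharomyces cerevisiae BJ5465), induced 36–48 hours with galactose, were stained 1 hour at 4 °C with 10% biotinylated, detergent-solubilized Sf9 membrane reagent, enriched on streptavidin microbeads, then FACS-sorted. Anti-HA (expression) and streptavidin (reagent binding) fluorescence set low and high (top ~1%) gates. Polyreactivity labels come from the gate of origin. Genes were colony-PCR amplified, MiSeq 2 × 250 sequenced and filtered by CDR length.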
Take “QVQLVESGGGLVQAGGSLRLSCAASGSTFARYAMGWYRQAPGKERELVAAITWSGGSTYYADSVKGRFTISRDNAKNTVYLQMNSLKPEDTAVYYCAARRRVGYYWGQGTQVTVSS”: the “polyreactivity (PSR sort gate)” value is on record as “high polyreactivity”.

For “QVQLVESGGGLVQAGGSLRLSCAASGSTFASYAMGWYRQAPGKERELVAAISSSGARTYYADSVKGRFTISRDNAKNTVYLQMNSLKPEDTAVYYCATDSKITETSLRYDYWGQGTQVTVSS”, the “polyreactivity (PSR sort gate)” value is “high polyreactivity”.

“QVQLVESGGGLVQAGGSLRLSCAASGSTFATYAMGWYRQAPGKERELVAAITRSGGITYYADSVKGRFTISRDNAKNTVYLQMNSLKPEDNAVYYCAKQYKWYGSRFYYWGQGTQVTVSS”: the “polyreactivity (PSR sort gate)” value is “high polyreactivity”.

Consider “QVQLVESGGGLVQAGGSLRLSCAASGSTFATYAMGWYRQAPGKERELVAVITLGGRTYYADSVKGRFTISRDNAKNTVYLQMNSLKPEDTAVYYCAAKAYTYYARIGFDYWGQGTQVTVSS”, for which the “polyreactivity (PSR sort gate)” value is recorded as “high polyreactivity”.

Take “QVQLVESGGGLVQAGGSLRLSCAASGSTFATYTMGWYRQAPGKERELVAAITRGSNTYYADSVKGRFTISRDNAKNTVDLQMNSLKPEHTAVYYCAAGYSGYRKYNSWGQGTQVTVSS”: the “polyreactivity (PSR sort gate)” value is listed as “high polyreactivity”.

Regarding “QVQLVESGGGLVQAGGSLRLSCAASGSTFAVIVMGWYRQAPGKERELVATITYRDGRTYYADSVKGRFTISRDNAKNTVYLQMNSLKPEDTAVYYCAADDEYKQEAEMDSWGQGTQVTVSS”, the “polyreactivity (PSR sort gate)” value is “low polyreactivity”.

For “QVQLVESGGGLVQAGGSLRLSCAASGSTFAVNAMGWYRQAPGKERELVAAITGSGGSTYYADSVKGRFTISRDNAKNTVYLQMNSLKPEDTAVYYCAAYRRYGYYYWGQGTQVTVSS”, the “polyreactivity (PSR sort gate)” value was “low polyreactivity”.

Turning to “QVQLVESGGGLVQAGGSLRLSCAASGSTFAVNVMGWYRQAPGKERELVATITYRDGRTYYADSVKGRFTISRDIAKYTVFLQMNSLKPEDTAVYYCAADDEYTQEAEMDSWGQGTQVTVSS”, the “polyreactivity (PSR sort gate)” value is “low polyreactivity”.

On to “QVQLVESGGGLVQAGGSLRLSCAASGSTFAVNVMGWYRQAPGKERELVATITYRDGRTYYADSVKGRFTISRDNAKNTVYLQMNSLKPEDTAVYYCAADDEYKQEAEMDSWGQGTQVTVSS”, for which the “polyreactivity (PSR sort gate)” value is “low polyreactivity”.

Turning to “QVQLVESGGGLVQAGGSLRLSCAASGSTFAVYAMGWSRKAPGKERELVATIRWSAGRTYYADSVKGRFTISRDNAKNTVYLQMNSLKPEDTAVYYCAARTWGQSTYGQGLDYWGQGTQVTVSS”, the “polyreactivity (PSR sort gate)” value is recorded as “high polyreactivity”.

With “QVQLVESGGGLVQAGGSLRLSCAASGSTFAVYAMGWYRQAPGKERELVAAITRGDRTYYADSVKGRFTISRDNAKNTVYLQMNSLKPEDTAVYYCAAGYYRLWVRYDYWGQGTQVTVSS”, the “polyreactivity (PSR sort gate)” value is “low polyreactivity”.

For the sequence “QVQLVESGGGLVQAGGSLRLSCAASGSTFAVYAMGWYRQAPGKVRELVAAMRYSGGSTYADSVKGRFTISRDNAKNTVYLQMNSLKPEDTAVYYCAAYVYSLGGEYGYWGQGTHVTVSS”, the “polyreactivity (PSR sort gate)” value is on record as “high polyreactivity”.

On to “QVQLVESGGGLVQAGGSLRLSCAASGSTFAVYTMGWYRQAPGKERELSTSYADSVKGRFTISRDNAKNTVYLQMNSLKPEDTAVYYCNRDFYEFDSNSYRFDYWGQGTQVTVSS”, for which the “polyreactivity (PSR sort gate)” value is reported as “low polyreactivity”.

In the case of “QVQLVESGGGLVQAGGSLRLSCAASGSTFAWNAMGWDRQAPGKERELVAAISKSGGSTYYADSVKGRFTISRDNAKNTVYLQMNSLKPEDTAVYYCAASGTVYARVRYYYWGQGTQVTVSS”, the “polyreactivity (PSR sort gate)” value is on record as “high polyreactivity”.

“QVQLVESGGGLVQAGGSLRLSCAASGSTFAWYAMGWYRQAPGKERELVAGIWNTGRTYYADSVKGRFTISRDNAKNTVYLLMHSLKPEDTAVYYCAALYNSPNVTYYYWGQGTQVTVSS”: the “polyreactivity (PSR sort gate)” value is listed as “high polyreactivity”.

Take “QVQLVESGGGLVQAGGSLRLSCAASGSTFAWYAMGWYRTAPGKERELVAAISRTGRTYYADSVKGRFTMSRDNAKNTVYLQMNSLKPEDTAVYYCAARIERFYRDQRYDYWGQGTQVTVSS”: the “polyreactivity (PSR sort gate)” value was “high polyreactivity”.

As to “QVQLVESGGGLVQAGGSLRLSCAASGSTFAYNDMGWYRQAPGKERDLVADIRYGGNTNYADSVKGRFTISRDNAKNTDYFQMNSLKPVDTSVYYCATDGYRSDVYHPDYRYDYWGQCTQVTVSS”, the “polyreactivity (PSR sort gate)” value was “low polyreactivity”.

Take “QVQLVESGGGLVQAGGSLRLSCAASGSTFAYNTMGWYRQAPGKDRELVAAISQRGGSTYADSVKGRFTISRDNAKNTVYLQMNSLKPEDNAVYYCAADGYTYKFDYWGQGTQVTVSS”: the “polyreactivity (PSR sort gate)” value is given as “low polyreactivity”.

In the case of “QVQLVESGGGLVQAGGSLRLSCAASGSTFAYYAMGWYRPAPGKERELVAVISVRGGSTYYAESVKGRFTISRDNAKNTVYLQMNSLKPEDTAVYYCAADTFAGYYYWGQGTQVTVSS”, the “polyreactivity (PSR sort gate)” value was “high polyreactivity”.

For “QVQLVESGGGLVQAGGSLRLSCAASGSTFAYYAMGWYRPAPGTERELVAAISKSGGSTYYADSVKGRFTISRDNAKNTFYIQMISLKPEDTAVYYCAAGKFRYRSRFDFWGQGTQVTVSS”, the “polyreactivity (PSR sort gate)” value was “high polyreactivity”.

Regarding “QVQLVESGGGLVQAGGSLRLSCAASGSTFAYYAMGWYRPAPGTERELVAAISSGGSTYYADSVKGRFTISRDNAKNTVYLQMNSLKPEDTAVYYCAADAVKASVSYIVPYAAYDYWGQGTQVTVSS”, the “polyreactivity (PSR sort gate)” value is “low polyreactivity”.

With “QVQLVESGGGLVQAGGSLRLSCAASGSTFAYYAMGWYRQAPGKEREFVAVINWRGGSTYYADSVKGRFTISRDNAKNTVYLQMNSLKQEDTAVYYCNGRSGGYYYGFDYWGQGTQVTVSS”, the “polyreactivity (PSR sort gate)” value is on record as “low polyreactivity”.

Take “QVQLVESGGGLVQAGGSLRLSCAASGSTFAYYAMGWYRQAPGKERELVAAISVSGGRTYYADSVKGRFTISRDNAKNTVYLQMNSLKPEDTAVYYCAKRFIYGRYNYWGQGTQVTVSS”: the “polyreactivity (PSR sort gate)” value was “high polyreactivity”.

Regarding “QVQLVESGGGLVQAGGSLRLSCAASGSTFAYYAMGWYRQAPGKERELVAAITIDGRTSYADSVKGRFTISRDNAKNTVYLQMNSLKAEDTAVYYCAADSSAWLYDYWGQGTQVTVSS”, the “polyreactivity (PSR sort gate)” value is reported as “low polyreactivity”.

“QVQLVESGGGLVQAGGSLRLSCAASGSTFAYYAMGWYRQAPGKERELVAGISGSGGSTYYADSVKGRFTISRDNAKNTVYLQLNSLKPEDTAVYYCAVVQRSKRTYPWYDYWGQGTQVTVSS”: the “polyreactivity (PSR sort gate)” value is on record as “low polyreactivity”.

Consider “QVQLVESGGGLVQAGGSLRLSCAASGSTFAYYAMGWYRQAPGKERELVASISWRGGSTYYAESVKGRFTISRDNAKNTVYLQMNSLKPEDTAVYYCAAGRFYTWSRSQEYDYWGQGTQVTVSS”, for which the “polyreactivity (PSR sort gate)” value is on record as “low polyreactivity”.

In the case of “QVQLVESGGGLVQAGGSLRLSCAASGSTFAYYTMGWYRQAPGKERELVAAISKSGGSTTYADSVKGRFTISRDNAKNTVYLQMNSLKPEETAVYYCAAARKYYGYNYWGQGTQVTVSS”, the “polyreactivity (PSR sort gate)” value is reported as “high polyreactivity”.

Take “QVQLVESGGGLVQAGGSLRLSCAASGSTFDANAMGWYRQAPGKERELVAAISSSGVRTYYADSVKGRFTISRDNAKNTVYLQMNSLKPEDTAVYYCAAGVVISTVDVTYGYWGQGTQVTVSS”: the “polyreactivity (PSR sort gate)” value was “low polyreactivity”.

Turning to “QVQLVESGGGLVQAGGSLRLSCAASGSTFDANAMGWYRQAPGKERELVATISDGGSTNYADSVKGRFTISRDNAKNTVYLQMNSLKPEDTAVYYCAAVKLFLGLGYDYWGQGTQVTVSS”, the “polyreactivity (PSR sort gate)” value was “low polyreactivity”.

For the sequence “QVQLVESGGGLVQAGGSLRLSCAASGSTFDANAMGWYRQAPGKERELVATISDGGSTNYADSVKGRFTISRDNAKNTVYVQMNSLKPEDTAVYYCAAVKLFLGLGYDYWGQGTEVTVSS”, the “polyreactivity (PSR sort gate)” value is given as “low polyreactivity”.

“QVQLVESGGGLVQAGGSLRLSCAASGSTFDAYAMGWCRQAPGTERELVAAITNAGSTNYADSVKGRFTISRDNAKNTVYLQMNSLKPEDTAVYYCATDWYHRYLDGRYDYWVQGTQVTVSS”: the “polyreactivity (PSR sort gate)” value is recorded as “low polyreactivity”.

Turning to “QVQLVESGGGLVQAGGSLRLSCAASGSTFDDYAMGWYRQAPGKERELVAAIYWSSGRTYYADSVKGRFTISRDNAKNTVYLQMNSLKPEDTAVYYCAARNRYDRLRYYYWGQGTQVTVSS”, the “polyreactivity (PSR sort gate)” value is “high polyreactivity”.

For the sequence “QVQLVESGGGLVQAGGSLRLSCAASGSTFDENAMGWYRQAPGKERELVAVISDSGGSTYYADSVKGRFTISRDNAKNTVDLQMNSLKPEVTAVYYCAKDVPPEYPTSSYDYWGQGTQVTVSS”, the “polyreactivity (PSR sort gate)” value is given as “low polyreactivity”.

Regarding “QVQLVESGGGLVQAGGSLRLSCAASGSTFDFNAMGWYRQAPGKERELVAAITGSDGNTYYADSVKGRFTISRDNAKNTVYLQMNSLKPEDTAVYYCAADFSWWSKYVVLYDYWGQGTQVTVSS”, the “polyreactivity (PSR sort gate)” value is reported as “low polyreactivity”.

Consider “QVQLVESGGGLVQAGGSLRLSCAASGSTFDFYAMAWYRQAPGKERELVADITSGGRTSYADSVKGRFTISRDNAKNTVYLQMNSLKPEDTAVYYCAALTRWYAWYDYWGQGTQVTVSS”, for which the “polyreactivity (PSR sort gate)” value was “high polyreactivity”.

Take “QVQLVESGGGLVQAGGSLRLSCAASGSTFDGYAMGWYRQAPGKERELVAAISASGGSTYYADSVKGRFTISRDNAKNTVYLQMNSLKPEDTAVYYCAAQVRYLCYRYDYWGQGSQVTVSS”: the “polyreactivity (PSR sort gate)” value is given as “high polyreactivity”.

As for “QVQLVESGGGLVQAGGSLRLSCAASGSTFDGYAMGWYTQAPGKERELVAAISKNGGRTYYADSVKGRFTISRDNAKNTVYLQMNSLKPEDTAVYYCAIDIIKYDYDYWGQGTQVTVSS”, the “polyreactivity (PSR sort gate)” value was “low polyreactivity”.

“QVQLVESGGGLVQAGGSLRLSCAASGSTFDHYTMGWYRPAPGKERELVAAINRIGDSTYYADSVKGRFTISRDNAKNTVYLQMNSLKPEDTAVYYCAARHVPRFNKYGYWGQGTQVTVSS”: the “polyreactivity (PSR sort gate)” value is recorded as “high polyreactivity”.

With “QVQLVESGGGLVQAGGSLRLSCAASGSTFDINAMGWYRQAPGKERELVAAISWGGGSTYYADSVKGRFTISRDNAKNTVYLQMNSLKPEDTAVYYCAKLKGTQPNRYDYWGQGTQVTVSS”, the “polyreactivity (PSR sort gate)” value was “low polyreactivity”.

Consider “QVQLVESGGGLVQAGGSLRLSCAASGSTFDIYAMGWYRQAPGKERELVAAIRYSGGSTYYADSVKGRFTISRDNAKYTVYLQMNSLKPEDTAVYYCAADPYQLWHYYYFGMDYWGQGTEVTVSS”, for which the “polyreactivity (PSR sort gate)” value was “low polyreactivity”.

For “QVQLVESGGGLVQAGGSLRLSCAASGSTFDIYAMGWYRQAPGKERELVAVISGGDGSTYYADSVKGRFTISRDNAKNTVYLQMNSLKPEDTAVYFCAADYISPGYWDGEYDCWGQGTQVTVSS”, the “polyreactivity (PSR sort gate)” value is listed as “low polyreactivity”.
